Laboratory results reported in the DeepSol protein solubility set.

Assay: soluble on expression in E. coli; label from the status in PepcDB or PDB records

Sequence | soluble on expression in E. coli
MLNDVYNKRIIELAGNIPRIGRLERPDASATAHSKLCGSTVTIDLKMDGDTVTDFAHIVKACALGQASSSIMASHVVGSTASELKALRETVRKMLKENGAPPDGKWADIAMLEPVRDYKARHASTLLTFDAVVDAIGQIEAQNDGAKATA | not soluble
YLFSSTAVASDESRPKIGLVLAGGGAKGAAHIGVLKALEEMHIPVDYITGTSMGAYVGGLYASGMSADEIEAFIDTVDWNSGFVDKVERSERQIRDKEYEDRYQIGTDIGFSFTELKAPKGFVQGQTMAKILRTTSDNIPYLNSFDQLPIPFRAVATDIEKLEPVVLDKGNLAEAMMASMSVPGALPPAEYDGRLLVDGGVVNNMPVDVV | not soluble
MNRMRWVGEGDIWDLDMSTPVTLEGTARAVPDDPLPLGLSRGTRLSRPKQVEFFHRFMASPLIPSFSPIRPNTGDGGGGGFSLQRVLTLPFSNNWLVSLLGQFDVQRFVTEIDKTKAFGRGSSSTVASRLNTIGKHLKDKSLYALGFCSEFLLSPDDTLLLSYDAYKGDLDKNPRAKAIFNHEFPLHNLTAEAVWPGLFVDKHGEYWDVPLSMAIDLASLPAESGPSYHLCLHHNSGSPKKLHSDTMEVPPPSLLPGLSLKSAVSYRTNMDLWRGTTPKLETCKPYDVFLSSPHVAVSGIIGSVMTAAFGENSIRSKFENDSEGVGGFSLHFPSVNSGFMADALGRASLTAQYGNFQKFFFDLTRFHARLDFPHGLRFLTGATSVAQDLLNSRQPSLEAFQKICPEVLVSLQQQIVGPFSFKVESGIEIDLRNGANPVTVDKTVFAIEYALQVLLSAKAVVSYSPKQNEFMVELRFFET | soluble
MGSDKIHHHHHHMNRISVVILNWNGCEMLRSFLPSVLRYSEAEGVEVCVADNGSTDQSVEMLRREFPSVRRILLDGNHGFADGYNLALRQVEAEYVVLLNSDVEVTGQWLQPMAAYLDAHPEVAACQPKIRSWRQKEWFEYAGAAGGFIDRYGYPFCRGRVMGVVEADRGQYDTVLPIFWATGAAMFIRLADYREAGGLDGRFFAHMEEIDLCWRLRARGRGIVCIPQSVVYHVGGATLKKENPHKTFLNFRNNLVMLYKNLPDRELAGVMRVRCWLDYIAAATFALKGQPANAKAVVRARREFKLLRDSFRDARAENLRKTSSHFIPERIKSSILVQFYVKGRKFFSQLSDLKG | not soluble
MGSDKIHHHHHHMETLELQGAKLRYHQVGQGPVLIFIPGANGTGNIFLPLAEQLKDHFTVVAVDRRDYGESELTEPLPDSASNPDSDYRVKRDAQDIAELAKSLSDEPVYILGSSSGSIVAMHVLKDYPEVVKKIAFHEPPINTFLPDSTYWKDKNDDIVHQILTEGLEKGMKTFGETLNIAPIDAKMMSQPADTEEGRIEQYKRTMFWSEFEIRQYTHSDITLDDFTKYSDKITLLNGTDSRGSFPQDVNFYINKETGIPIVDIPGGHLGYIQKPEGFADVLLNMWG | not soluble
DQVSRFRLLGGNQVRPLAGGDEAYPAMMQAIREARVSIAMQSYIFDCDPIGREMAQALVEAQQRGVQVRVLIDAIGSKYSRPPIVRTLVRGGVRTARFMTNPLGVMRMPYANLRSHRKILVVDGHVGFTGGMNIRAAFVTALAGKAANGDTHFRLEGPVVAQLMAVFAHDWNFTTRESLEGPTWFPPAPERAPGSVPMRCVASGPDSALGSTHKM | not soluble
MTIRFDNVSYTYQKGTPYQHQAIHDVNTEFEQGKYYAIVGQTGSGKSTLIQNINALLKPTTGTVTVDDITITHKTKDKYIRPVRKRIGMVFQFPESQLFEDTVEREMIFGPKNFKMNLDEAKNYAHRLLMDLGFSRDVMSQSPFQMSGGQMRKIAIVSILAMNPDIIVVDEPTAGLDPQSKRQVMRLLKSLQTDENKAIILISHDMNEVARYADEVIVMKEGSIVSQTSPKELFKDKKKLADWHIGLPEIVQLQYDFEQKYQTKLKDIALTEEAFVSLYKEWQHEK | not soluble
MTRYALLVRGINVGGKNKVVMAELRQELTNLGLEKVESYINSGNIFFTSIDSKAQLVEKLETFFAVHYPFIQSFSLLSLEDFEAELENLPAWWSRDLARKDFLFYTEGLDVDQVIATVESLELKDEVLYFGKLGIFWGKFSEESYSKTAYHKYLLKVPFYRHITIRNAKTFDKIGQMLKK | soluble
VTDASVHPDELDPEYHHHGGFPEYGPASPGAGFGQFVATMRRLQDLAVAADPGDAVWDEAAERAAALVELLSPFEADEGKAPAGRTPGLPGMGSLLLPPWTVTRYGTDGVEMRGSFSRFHVGGNSAVHGGVLPLLFDHMFGMISHAAGRPISRTAFLHVDYRRITPIDVPLIVRGRVTNTEGRKAFVCAELFDSDETLLAEGNGLMVRLLPGQP | soluble
VQERIKACFTESIQTQIAAAEALPDAISRAAMTLVQSLLNGNKILCCGNGTSAANAQHFAASMINRFETERPSLPAIALNTDNVVLTAIANDRLHDEVYAKQVRALGHAGDVLLAISTRGNSRDIVKAVEAAVTRDMTIVALTGYDGGELAGLLGPQDVEIRIPSHRSARIQEMHMLTVNCLCDLIDNTLFPHQDD | soluble
MQSAKPLFDYPKYWAECFGPAPFLPMSREEMDLLGWDSCDIIIVTGDAYVDHPSFGMAIIGRLLESQGFRVGIIAQPNWQSKDDFMKLGEPNLFFGVAAGNMDSMINRYTADKKIRSDDAYTPGGMAGKRPDRASLVYSQRCKEAYKHVPIVLGGIEASLRRIAHYDYWQDKVRNSILIDACADILLYGNAERAIVEVAQRLSYGHKIEDITDVRGTAFIRRDTPQGWYEVDSTRIDRPGKVDKIINPYVNTQDTQACAIEQEKGNVEDPNEAKVVQILASPRMTRDKTVIRLPSVEKVRNDAVLYAHANRVLHLETNPGNARALVQKHGEVDVWFNPPPIPMTTDEMDYVFGMPYARVPHPAYGKEKIPAYDMIRFS | not soluble
MSLQPHLICLDLDGTLLNDNKEISSYTKQVLNELQQRGHQIMIATGRPYRASQMYYHELNLTTPIVNFNGAYVHHPKDKNFKTCHEILDLGIAQNIIQGLQQYQVSNIIAEVKDYVFINNHDPRLFEGFSMGNPRIQTGNLLVHLKESPTSILIEAEESKIPEIKNMLTHFYADHIEHRRWGAPFPVIEIVKLGINKARGIEQVRQFLNIDRNNIIAFGDEDNDIEMIEYARHGVAMENGLQELKDVANNITFNNNEDGIGRYLNDFFNLNIRYYEGHHHHHH | soluble
MLKKNDIVEVEIVDLTHEGAGVAKVDGLVFFVENALPSEKILMRVLKVNKKIGFGKVEKYLVQSPHRNQDLDLAYLRSGIADLGHLSYPEQLKFKTKQVKDSLYKIAGIADVEVAETLGMEHPVKYRNKAQVPVRRVNGVLETGFFRKNSHNLMPLEDFFIQDPVIDQVVVALRDLLRRFDLKPYDEKEQSGLIRNLVVRRGHYSGQIMVVLVTTRPKVFRVDQLIEQVIKQFPEIVSVMQNINDQNTNAIFGKEWRTLYGQDYITDQMLGNDFQIAGPAFYQVNTEMAEKLYQTAIDFAELKKDDVIIDAYSGIGTIGLSVAKHVKEVYGVELIPEAVENSQKNASLNKITNAHYVCDTAENAMKKWLKEGIQPTVILVDPPRKGLTESFIKASAQTGADRIAYISCNVATMARDIKLYQELGYELKKVQPVDLFPQTHHVETVALLSKLDVDKHISVEIELDEMDLTSAESKATYAQIKEYVWNKFELKVSTLYIAQIKKKCGIELREHYNKSKKDKQIIPQCTPEKEEAIMDALRHFKMI | not soluble
MHVAIIGGGISGIAAAFYLAQQKVSIDIFESENQIGGRAGSDFLQERRVDFGGKNIGRNYLLFREFARAYGDPAFEYFGINTSQLINGRIVSISREGSAWLNLLKIIRLCGLRKGITRLYPHIQAILNDRSQGVLCSDYFRALSENFDHLTLDRYLNQRCIDRVIRPITIRMNGAEPEECYPGNFGSNLALALDSFEQLTLGMYNLLDTFIASHRQESSFRILTGHRVTSIAKDQDKFRINYLNGAVSGTGSYDRIISALPAYSLAELLQDELPEASRLLNKISYFPVSIAIVKYRDEVFPQNRRAMVFDRNSPLSNAGAYGLNDLDIVRYTFSGKASRAAISEHSTPEEVISLGEKTASPYFSIKDNPKEAFVFRYFPKGLCAYSPKHHLLLEEIDRLVNRLSGFGTTGDYRRGASIEACFRAAKECIEKVVGDGSLEHHHHHH | soluble
MAHHHHHHMEYQGSPQQEEGDAALAKRLHEELNRSEASGHQEPSDQTGGRRQVECPMCSSVSVVVGAADGVQQVCERCKATTHGGFASGEDNENYSMQKLLLCNICQSYNRVPKGTFDAILCGACGNQLKAGGSVTENLSPEDTRVRTQEIRVRCPKCSSINTVEANTDALSVRFECGSCRYANEVFF | soluble
MSLAREPRNIGASVRARLLDRARAERSDFQILLTRYALERLLYRLSASPHRDRFILKGAMLFVTWIADPFRPTRDLDLLGHGDRDTEAIAETFRAICAQPVVDDGVTFDVAALMATPIREELEYGGVRVRTTATIAGARIPIQVDIGFGDAITPAAVEIDYPTLLDAPTPHLRAYPVETVVAEKFAALVTLGVANSRLKDFYDLWVISRTFELRRAALAEAIQRTFERRGTVLPSVVPVGLTDEFAETWAAQWRAFLERDRMAAAPDAFAVTVADLRLFLMPLVVGLKEERIWPPSGPWSPGAAIDEAEGHHHHHH | soluble
MLRPVETPTREIKKLDGLWAFSLDRENCGIDQRWWESALQESRAIAVPGSFNDQFADADIRNYAGNVWYQREVFIPKGWAGQRIVLRFDAVTHYGKVWVNNQEVMEHQGGYTPFEADVTPYVIAGKSVRITVCVNNELNWQTIPPGMVITDENGKKKQSYFHDFFNYAGIHRSVMLYTTPNTWVDDITVVTHVAQDCNHASVDWQVVANGDVSVELRDADQQVVATGQGTSGTLQVVNPHLWQPGEGYLYELCVTAKSQTECDIYPLRVGIRSVAVKGEQFLINHKPFYFTGFGRHEDADLRGKGFDNVLMVHDHALMDWIGANSYRTSHYPYAEEMLDWADEHGIVVIDETAAVGFNLSLGIGFEAGNKPKELYSEEAVNGETQQAHLQAIKELIARDKNHPSVVMWSIANEPDTRPQGAREYFAPLAEATRKLDPTRPITCVNVMFCDAHTDTISDLFDVLCLNRYYGWYVQSGDLETAEKVLEKELLAWQEKLHQPIIITEYGVDTLAGLHSMYTDMWSEEYQCAWLDMYHRVFDRVSAVVGEQVWNFADFATSQGILRVGGNKKGIFTRDRKPKSAAFLLQKRWTGMNFGEKPQQGGKQ | soluble
MSKPLPLVTRQGDRIVIVNGLRTPFAKQATAYHGVPAVDLGKIVVSELLARSGISSELIDQLVFGQVVQMPEAPNIAREIVLGTGMSVHTDAYSVSRACATSFQAVANVAESIIAGSVDIAIAGGADSSSVLPIGVSKALARTLVDANKARSLSQKLKLFSRLRLRDLLPVAPAVAEYSTGLRMGDTAEQMAKTYGISREDQDALALRSHQLAAEAWQQGWLHDEVMTAYIPPYREAIIEDNNIRKDSTLAQYAKLRPAFDRQHGSVTAANSTPLTDGAAAVLMMSESKAKALGLPPLGYLRSFAFSAIDVWQDMLLGPSYATPLALDRAGITLADLTLIDMHEAFAAQTLANLKMFASDTFAREKLGRSQAIGEVDMSKFNVLGGSIAYGHPFAATGARMITQTLNELRRRGGGLGLTTACAAGGLGAAMILEVE | not soluble
MRRDYMSVYDYPVPTTPWLNTAPGLFIDDYTSTASSTVSSLSRTLIYDYEQNPDSGNNVVALAAKAGYSTWWISNQGKLGEHDTRISVIASDAEHATFLKKGSFASRKTDDKLLLQETERALADTSSPKIIFLHMMGSHPNPCDSLNSLEHHHHHH | not soluble
